# How the values were obtained:
# [1] = tested on: hemagglutinin of lowly pathogenic influenza virus H2N1
# [2] = tested on: hemagglutinin of lowly pathogenic influenza virus H9N2_02
# [3] = tested on: hemagglutinin of lowly pathogenic influenza virus H2N4
# [4] = tested on: hemagglutinin of lowly pathogenic influenza virus H3N2 (Experimental Example 4)
# [5] = tested on: hemagglutinin of lowly pathogenic influenza virus H9N2_01
# [6] = tested on: hemagglutinin of lowly pathogenic influenza virus H7N9
# [7] = tested on: hemagglutinin of highly pathogenic influenza virus H5N6
# [8] = tested on: hemagglutinin of highly pathogenic influenza virus H5N1_01
# [9] = tested on: hemagglutinin of lowly pathogenic influenza virus H7N7
# [10] = tested on: hemagglutinin of lowly pathogenic influenza virus H9N2 (Experimental Example 4)
# [11] = tested on: hemagglutinin of lowly pathogenic influenza virus H3N8
# [12] = tested on: hemagglutinin of lowly pathogenic influenza virus H1N1 (Experimental Example 4)
# [13] = tested on: hemagglutinin of highly pathogenic influenza virus H5N1_02
# [14] = tested on: hemagglutinin of lowly pathogenic influenza virus H1N1_02
# [15] = tested on: hemagglutinin of lowly pathogenic influenza virus H1N1_01
substance,measurement,setting,value
furin,"fluorescence intensity of probe of Preparation Example 1, furin only, pH 5.5",[1],371
same,"fluorescence intensity of probe of Preparation Example 2, furin only, pH 5.5",[1],333
same,"fluorescence intensity of probe of Preparation Example 3, furin only, pH 5.5",[1],569
same,"fluorescence intensity of probe of Preparation Example 1, furin only, pH 5.5",[2],418
same,"fluorescence intensity of probe of Preparation Example 2, furin only, pH 5.5",[2],571
same,"fluorescence intensity of probe of Preparation Example 3, furin only, pH 5.5",[2],306
same,"fluorescence intensity of probe of Preparation Example 1, furin only, pH 5.5",[3],426
same,"fluorescence intensity of probe of Preparation Example 2, furin only, pH 5.5",[3],347
same,"fluorescence intensity of probe of Preparation Example 3, furin only, pH 5.5",[3],477
same,"fluorescence intensity of probe of Example 4-1, furin only, pH 5.5",[4],"4,697"
same,"fluorescence intensity of probe of Example 4-2, furin only, pH 5.5",[4],"4,953"
same,"fluorescence intensity of probe of Example 4-3, furin only, pH 5.5",[4],"1,731"
same,"fluorescence intensity of probe of Preparation Example 1, furin only, pH 5.5",[5],353
same,"fluorescence intensity of probe of Preparation Example 2, furin only, pH 5.5",[5],443
same,"fluorescence intensity of probe of Preparation Example 3, furin only, pH 5.5",[5],461
same,"fluorescence intensity of probe of Preparation Example 1, furin only, pH 5.5",[6],545
same,"fluorescence intensity of probe of Preparation Example 2, furin only, pH 5.5",[6],461
same,"fluorescence intensity of probe of Preparation Example 3, furin only, pH 5.5",[6],528
same,"fluorescence intensity of probe of Preparation Example 1, furin only, pH 5.5",[7],2420
same,"fluorescence intensity of probe of Preparation Example 2, furin only, pH 5.5",[7],2720
same,"fluorescence intensity of probe of Preparation Example 3, furin only, pH 5.5",[7],2250
same,"fluorescence intensity of probe of Preparation Example 1, furin only, pH 5.5",[8],2840
same,"fluorescence intensity of probe of Preparation Example 2, furin only, pH 5.5",[8],4680
same,"fluorescence intensity of probe of Preparation Example 3, furin only, pH 5.5",[8],4330
same,"fluorescence intensity of probe of Preparation Example 1, furin only, pH 5.5",[9],432
same,"fluorescence intensity of probe of Preparation Example 2, furin only, pH 5.5",[9],401
same,"fluorescence intensity of probe of Preparation Example 3, furin only, pH 5.5",[9],575
same,"fluorescence intensity of probe of Example 4-1, furin only, pH 5.5",[10],"3,134"
same,"fluorescence intensity of probe of Example 4-2, furin only, pH 5.5",[10],"3,703"
same,"fluorescence intensity of probe of Example 4-3, furin only, pH 5.5",[10],"4,218"
same,"fluorescence intensity of probe of Preparation Example 1, furin only, pH 5.5",[11],399
same,"fluorescence intensity of probe of Preparation Example 2, furin only, pH 5.5",[11],442
same,"fluorescence intensity of probe of Preparation Example 3, furin only, pH 5.5",[11],313
same,"fluorescence intensity of probe of Example 4-1, furin only, pH 5.5",[12],"3,721"
same,"fluorescence intensity of probe of Example 4-2, furin only, pH 5.5",[12],"3,955"
same,"fluorescence intensity of probe of Example 4-3, furin only, pH 5.5",[12],"4,344"
same,"fluorescence intensity of probe of Preparation Example 1, furin only, pH 5.5",[13],2130
same,"fluorescence intensity of probe of Preparation Example 2, furin only, pH 5.5",[13],4840
same,"fluorescence intensity of probe of Preparation Example 3, furin only, pH 5.5",[13],5000
same,"fluorescence intensity of probe of Preparation Example 1, furin only, pH 5.5",[14],594
same,"fluorescence intensity of probe of Preparation Example 2, furin only, pH 5.5",[14],364
same,"fluorescence intensity of probe of Preparation Example 3, furin only, pH 5.5",[14],490
same,"fluorescence intensity of probe of Preparation Example 1, furin only, pH 5.5",[15],492
same,"fluorescence intensity of probe of Preparation Example 2, furin only, pH 5.5",[15],374
same,"fluorescence intensity of probe of Preparation Example 3, furin only, pH 5.5",[15],327
trypsin,"fluorescence intensity of probe of Preparation Example 1, trypsin only, pH 5.5",[1],2210
same,"fluorescence intensity of probe of Preparation Example 2, trypsin only, pH 5.5",[1],2120
same,"fluorescence intensity of probe of Preparation Example 3, trypsin only, pH 5.5",[1],2060
same,"fluorescence intensity of probe of Preparation Example 1, trypsin only, pH 5.5",[2],3280
same,"fluorescence intensity of probe of Preparation Example 2, trypsin only, pH 5.5",[2],4720
same,"fluorescence intensity of probe of Preparation Example 3, trypsin only, pH 5.5",[2],3730
same,"fluorescence intensity of probe of Preparation Example 1, trypsin only, pH 5.5",[3],4020
same,"fluorescence intensity of probe of Preparation Example 2, trypsin only, pH 5.5",[3],3090
same,"fluorescence intensity of probe of Preparation Example 3, trypsin only, pH 5.5",[3],3460
same,"fluorescence intensity of probe of Example 4-1, trypsin only, pH 5.5",[4],"19,192"
same,"fluorescence intensity of probe of Example 4-2, trypsin only, pH 5.5",[4],"16,812"
same,"fluorescence intensity of probe of Example 4-3, trypsin only, pH 5.5",[4],"16,362"
same,"fluorescence intensity of probe of Preparation Example 1, trypsin only, pH 5.5",[5],3750
same,"fluorescence intensity of probe of Preparation Example 2, trypsin only, pH 5.5",[5],4580
same,"fluorescence intensity of probe of Preparation Example 3, trypsin only, pH 5.5",[5],3510
same,"fluorescence intensity of probe of Preparation Example 1, trypsin only, pH 5.5",[6],3990
same,"fluorescence intensity of probe of Preparation Example 2, trypsin only, pH 5.5",[6],4600
same,"fluorescence intensity of probe of Preparation Example 3, trypsin only, pH 5.5",[6],3250
same,"fluorescence intensity of probe of Preparation Example 1, trypsin only, pH 5.5",[7],2740
same,"fluorescence intensity of probe of Preparation Example 2, trypsin only, pH 5.5",[7],2760
same,"fluorescence intensity of probe of Preparation Example 3, trypsin only, pH 5.5",[7],2030
same,"fluorescence intensity of probe of Preparation Example 1, trypsin only, pH 5.5",[8],2950
same,"fluorescence intensity of probe of Preparation Example 2, trypsin only, pH 5.5",[8],4000
same,"fluorescence intensity of probe of Preparation Example 3, trypsin only, pH 5.5",[8],3410
same,"fluorescence intensity of probe of Preparation Example 1, trypsin only, pH 5.5",[9],2600
same,"fluorescence intensity of probe of Preparation Example 2, trypsin only, pH 5.5",[9],2070
same,"fluorescence intensity of probe of Preparation Example 3, trypsin only, pH 5.5",[9],2510
same,"fluorescence intensity of probe of Example 4-1, trypsin only, pH 5.5",[10],"18,345"
same,"fluorescence intensity of probe of Example 4-2, trypsin only, pH 5.5",[10],"18,950"
same,"fluorescence intensity of probe of Example 4-3, trypsin only, pH 5.5",[10],"18,035"
same,"fluorescence intensity of probe of Preparation Example 1, trypsin only, pH 5.5",[11],3600
same,"fluorescence intensity of probe of Preparation Example 2, trypsin only, pH 5.5",[11],4070
same,"fluorescence intensity of probe of Preparation Example 3, trypsin only, pH 5.5",[11],3400
same,"fluorescence intensity of probe of Example 4-1, trypsin only, pH 5.5",[12],"17,689"
same,"fluorescence intensity of probe of Example 4-2, trypsin only, pH 5.5",[12],"17,581"
same,"fluorescence intensity of probe of Example 4-3, trypsin only, pH 5.5",[12],"15,674"
same,"fluorescence intensity of probe of Preparation Example 1, trypsin only, pH 5.5",[13],2960
same,"fluorescence intensity of probe of Preparation Example 2, trypsin only, pH 5.5",[13],4540
same,"fluorescence intensity of probe of Preparation Example 3, trypsin only, pH 5.5",[13],4360
same,"fluorescence intensity of probe of Preparation Example 1, trypsin only, pH 5.5",[14],4550
same,"fluorescence intensity of probe of Preparation Example 2, trypsin only, pH 5.5",[14],4720
same,"fluorescence intensity of probe of Preparation Example 3, trypsin only, pH 5.5",[14],3150
same,"fluorescence intensity of probe of Preparation Example 1, trypsin only, pH 5.5",[15],3350
same,"fluorescence intensity of probe of Preparation Example 2, trypsin only, pH 5.5",[15],4020
same,"fluorescence intensity of probe of Preparation Example 3, trypsin only, pH 5.5",[15],3720

# Source: patent US20170307612
